Source: patent US20260071002A1 (Hoffmann-La Roche, published 2026)

T1: human CEACAM1 (human, UniProt P13688 35-526)
T1 construct: whole, on cells; also called CHO-CEACAM1
T1 sequence (looked up): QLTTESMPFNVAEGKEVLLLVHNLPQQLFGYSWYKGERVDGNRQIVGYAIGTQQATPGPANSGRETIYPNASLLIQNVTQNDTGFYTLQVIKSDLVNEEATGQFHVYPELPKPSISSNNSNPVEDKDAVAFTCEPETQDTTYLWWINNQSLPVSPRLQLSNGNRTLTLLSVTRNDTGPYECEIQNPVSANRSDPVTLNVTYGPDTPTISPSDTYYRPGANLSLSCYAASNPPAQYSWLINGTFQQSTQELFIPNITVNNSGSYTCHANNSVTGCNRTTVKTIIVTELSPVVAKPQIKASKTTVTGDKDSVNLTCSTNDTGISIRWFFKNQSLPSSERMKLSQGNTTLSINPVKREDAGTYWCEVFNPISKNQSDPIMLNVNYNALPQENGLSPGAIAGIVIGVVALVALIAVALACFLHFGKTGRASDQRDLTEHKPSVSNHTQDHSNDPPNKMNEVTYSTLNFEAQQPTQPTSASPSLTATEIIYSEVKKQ

T2: human CEACAM6 (human, UniProt P40199 35-320)
T2 construct: whole, on cells; also called CHO-CEACAM6
T2 sequence (looked up): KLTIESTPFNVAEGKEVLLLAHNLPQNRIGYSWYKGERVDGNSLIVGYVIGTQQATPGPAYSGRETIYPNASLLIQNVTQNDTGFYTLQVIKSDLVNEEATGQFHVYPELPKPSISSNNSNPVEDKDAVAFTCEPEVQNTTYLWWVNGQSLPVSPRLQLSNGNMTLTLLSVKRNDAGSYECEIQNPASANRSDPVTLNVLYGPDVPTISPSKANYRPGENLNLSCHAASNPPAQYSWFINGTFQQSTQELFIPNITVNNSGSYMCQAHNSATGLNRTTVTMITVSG

T3: human CEACAM5 (human, UniProt P06731 35-685)
T3 construct: whole, on cells; Target on MKN-45 (DSMZ ACC409) and LS180 (ATCC CL-187) cells; also called carcinoembryonic antigen-related cell adhesion molecule 5; CD66e
T3 sequence (looked up): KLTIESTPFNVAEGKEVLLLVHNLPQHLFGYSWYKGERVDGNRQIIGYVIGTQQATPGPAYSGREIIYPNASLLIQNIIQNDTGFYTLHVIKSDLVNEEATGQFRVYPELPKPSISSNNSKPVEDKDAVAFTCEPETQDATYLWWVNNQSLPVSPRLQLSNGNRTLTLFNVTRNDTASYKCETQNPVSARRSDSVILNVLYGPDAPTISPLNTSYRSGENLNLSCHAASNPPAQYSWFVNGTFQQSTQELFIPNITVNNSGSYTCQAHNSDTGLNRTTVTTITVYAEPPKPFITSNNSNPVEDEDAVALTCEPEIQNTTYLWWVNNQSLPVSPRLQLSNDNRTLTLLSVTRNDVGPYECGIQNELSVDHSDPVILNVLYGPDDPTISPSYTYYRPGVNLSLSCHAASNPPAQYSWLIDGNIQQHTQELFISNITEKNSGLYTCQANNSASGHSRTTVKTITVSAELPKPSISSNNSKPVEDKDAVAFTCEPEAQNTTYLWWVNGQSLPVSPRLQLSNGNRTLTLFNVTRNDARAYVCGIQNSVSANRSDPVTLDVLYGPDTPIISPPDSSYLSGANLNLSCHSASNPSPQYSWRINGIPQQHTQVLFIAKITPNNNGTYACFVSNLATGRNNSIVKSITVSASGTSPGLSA


Tests used:
[1] = target: T1, human CEACAM1; test: FACS on CHO cells overexpressing human CEACAM1
Protocol: (§1) Viability of CHO-CEACAM1 (CHO cells overexpressing human CEACAM1) and CHO-CEACAM6 (CHO cells overexpressing human CEACAM6) cells was checked. Then 100 μl of re-suspended target cells were seeded into a U-bottom plate (100′000 cells/well). The antibodies were diluted in FACS buffer. The plates were centrifuged for 4 min at 400×g and supernatant was removed. Then 25 µl/well of the diluted antibodies were added to the cells. The cells were incubated for 45 min at 4° C. After the incubation, cells were washed twice and 25 μl/well of diluted (1/100 in FACS buffer) PE anti-human Fc secondary antibody (Jackson Immuno Research, #109-116-170) or the directly labeled CD66 antibody (Clone B1.1/CD66, BD Bioscience, #551480) was added to the cells. The cells were incubated for 45 min at 4° C. After the incubation, cells were washed twice. Then cells were re-suspended in 150 μl/well of FACS buffer. Cell binding was measured on the BD LSRFortessa Flow Cytometer, the same day.

[2] = target: T2, human CEACAM6; test: FACS on CHO cells overexpressing human CEACAM6
Protocol: as §1

[3] = target: T3, human CEACAM5; test: FACS on MKN-45 cells expressing human CEACAM5
Protocol: 10 μl of a 1×10⁴ MKN-45 (DSMZ ACC409) cell suspension in assay buffer was seeded in all Wells of a 384 well polypropylene plate (Weidmann #23490-101). Then 10 μl of antibodies diluted in assay buffer (double concentrated), at a start concentration of 100 μg/ml, serially diluted 1:4 were added to the plate. After 90 minutes incubation at 4° C., 60 μl assay buffer was added followed by a centrifuge step (330×g, 5 min) and an aspirating step (BioTek washer 405H) where 60 μl of supernatant were discarded. 20 μl of detection antibody (Alpaca anti rabbit IgG Chromotek #srbAF647-1) diluted in assay buffer (double concentrated) to a final concentration of 0.5 μg/ml was added to all Wells followed by 1 hour incubation time at room temperature. The cells were then subjected to two washing steps with 40 μl and 60 μl assay buffer as described above and then resuspended in 20 μl assay buffer. Cell binding was measured on an iQue Screener Plus high throughput FACS device from Sartorius/Intellicyt.

Row | Binder | binding result [1] | binding result [2] | EC50 [3]
1 | P1AI5015 (antibody, human IgG1, V domains shown) VH: EVQLVESGGGLVQPGGSLRLSCAASGFNIKDTYMHWVRQAPGKGLEWVGRIDPANGNSKYADSVKGRFTISADTSKNTAYLQMNSLRAEDTAVYYCAPFGYYVSDYAMAYWGQGTTVTVSS VL: EIVLTQSPATLSLSPGERATLSCRAGESVDIFGVGFLHWYQQKPGQAPRLLIYRGSNRATGIPARFSGSGSGTDFTLTISSLEPEDFAVYYCQQTYEYPYTFGQGTKLEIK | no binding | no binding | 0.483 mg/L
2 | P1AI5014 (antibody, human IgG1, V domains shown) VH: EVQLVESGGGLVQPGGSLRLSCAASGFNIKDTYMHWVRQAPGKGLEWVGRIDPANGNSKYADSVKGRFTISADTSKNTAYLQMNSLRAEDTAVYYCAPFGYYVSDYAMAYWGQGTTVTVSS VL: EIVLTQSPATLSLSPGERATLSCRAGESVDIFGVGFLHWYQQKPGQAPRLLIYRGSNRATGIPARFSGSGSGTDFTLTISSLEPEDFAVYYCQQTNEDPYTFGQGTKLEIK | no binding | no binding | 1.53 mg/L
3 | P1AI5017 (antibody, human IgG1, V domains shown) VH: EVQLVESGGGLVQPGGSLRLSCAASGFNIKDTYMHWVRQAPGKGLEWVGRIDPANGNSKYADSVKGRFTISADTSKNTAYLQMNSLRAEDTAVYYCAPFGYYVSDYAMAYWGQGTTVTVSS VL: EIVLTQSPATLSLSPGERATLSCRAGESVDIFGVGFLHWYQQKPGQAPRLLIYRGSNRATGIPARFSGSGSGTDFTLTISSLEPEDFAVYYCQQTSEYPYTFGQGTKLEIK | no binding | no binding | 0.762 mg/L
4 | P1AI5018 (antibody, human IgG1, V domains shown) VH: EVQLVESGGGLVQPGGSLRLSCAASGFNIKDTYMHWVRQAPGKGLEWVGRIDPANGNSKYADSVKGRFTISADTSKNTAYLQMNSLRAEDTAVYYCAPFGYYVSDYAMAYWGQGTTVTVSS VL: EIVLTQSPATLSLSPGERATLSCRAGESVDIFGVGFLHWYQQKPGQAPRLLIYRGSNRATGIPARFSGSGSGTDFTLTISSLEPEDFAVYYCQQTTEYPYTFGQGTKLEIK | no binding | no binding | 0.65 mg/L

Continued, values first:

Row | binding result [1] | binding result [2] | EC50 [3] | Binder
5 | no binding | no binding | 0.588 mg/L | P1AI5016 (antibody, human IgG1, V domains shown) VH: EVQLVESGGGLVQPGGSLRLSCAASGFNIKDTYMHWVRQAPGKGLEWVGRIDPANGNSKYADSVKGRFTISADTSKNTAYLQMNSLRAEDTAVYYCAPFGYYVSDYAMAYWGQGTTVTVSS VL: EIVLTQSPATLSLSPGERATLSCRAGESVDIFGVGFLHWYQQKPGQAPRLLIYRGSNRATGIPARFSGSGSGTDFTLTISSLEPEDFAVYYCQQTVEYPYTFGQGTKLEIK
6 | no binding | no binding | 2.42 mg/L | P1AI5031 (antibody, human IgG1, V domains shown, also called 24_A55M) VH: EVQLVESGGGLVQPGGSLRLSCAASGFNIKDTYMHWVRQAPGKGLEWVGRIDPANGNSKYADSVKGRFTISADTSKNTAYLQMNSLRAEDTAVYYCAPFGYYVSDYAMAYWGQGTTVTVSS VL: EIVLTQSPATLSLSPGERATLSCRAGESVDIFGVGFLHWYQQKPGQAPRLLIYRGSNRMTGIPARFSGSGSGTDFTLTISSLEPEDFAVYYCQQTNEDPYTFGQGTKLEIK
